For one experiment, the target named is PD-1-Fc (human) (UniProt Q15116). Put plainly: ForteBio Octet, PD-1 on anti-human capture sensor, 100 nM.
Experiment [1] concerns the target human PD-1 (human) (UniProt Q15116).
In experiment [2] the target is CD28, full-length, expressed on transfected cells (Homo sapiens (Human)) (UniProt P10747). Put plainly: flow cytometry, cells expressing target. For orientation: A flow cytometer gives signals particle by particle.
Substrate in experiment [3]: ICOS as used in the OD read-out of Table E15A (Homo sapiens (Human)) (UniProt Q9Y6W8)
Put plainly: OD read-out, format not told.

Experiment [4] has as its target human PD-1 (human) (UniProt Q15116). In words: flow cytometry, cells expressing PD-1, 20 nM.

The values below come from US20250163127A1.

Sequence of human PD-1 (human) (Q15116 25-288): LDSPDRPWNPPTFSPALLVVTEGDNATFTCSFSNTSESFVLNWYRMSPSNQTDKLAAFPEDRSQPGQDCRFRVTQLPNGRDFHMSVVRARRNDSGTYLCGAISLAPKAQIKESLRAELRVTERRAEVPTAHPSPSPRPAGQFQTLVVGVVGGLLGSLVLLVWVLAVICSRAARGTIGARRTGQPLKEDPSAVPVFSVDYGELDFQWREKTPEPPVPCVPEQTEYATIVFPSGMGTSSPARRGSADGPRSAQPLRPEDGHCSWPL
Sequence of PD-1-Fc (human) (Q15116 25-167 limits assumed): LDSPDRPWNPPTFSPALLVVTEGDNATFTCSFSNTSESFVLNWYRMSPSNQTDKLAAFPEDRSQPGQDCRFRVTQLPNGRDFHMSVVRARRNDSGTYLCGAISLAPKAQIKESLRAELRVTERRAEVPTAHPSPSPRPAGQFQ

B1: variant PD-L2 IgV G28V/Q72H/R76G/I86T Fc fusion (Fc fusion)
chain: LFTVTVPKELYIIEHGSNVTLECNFDTVSHVNLGAITASLQKVENDTSPHRERATLLEEQLPLGKASFHIPHVQVGDEGQYQCIITYGVAWDYKYLTLKVKA
As for B1, in the experiment with PD-1-Fc (human), the Fortebio Response Units (Response Units) was 0.003. Moreover, the IFN gamma levels pg/mL (MLR) with human PD-1 (human) [1] came out at 1780 pg/mL.

B2: variant PD-L2 IgV I13V/H15Q/T47A/R76G/V89D Fc fusion (Fc fusion)
chain: LFTVTVPKELYIVEQGSNVTLECNFDTGSHVNLGAITASLQKVENDASPHRERATLLEEQLPLGKASFHIPQVQVGDEGQYQCIIIYGDAWDYKYLTLKVKA
B2: the Fortebio Response Units (Response Units) in the experiment with PD-1-Fc (human) came out at 1.6. Also, the IFN gamma levels pg/mL (MLR) with human PD-1 (human) [1] stood at 1250 pg/mL.

B3: variant PD-L2 IgV H15Q/V89D Fc fusion (Fc fusion)
chain: LFTVTVPKELYIIEQGSNVTLECNFDTGSHVNLGAITASLQKVENDTSPHRERATLLEEQLPLGKASFHIPQVQVRDEGQYQCIIIYGDAWDYKYLTLKVKA
As to B3, the Fortebio Response Units (Response Units) with PD-1-Fc (human) worked out at 0.31. This molecule showed an IFN gamma levels pg/mL (MLR) with human PD-1 (human) [1] of 1500 pg/mL.

B4: variant PD-L2 IgV H15Q/T47A Fc fusion (Fc fusion)
chain: LFTVTVPKELYIIEQGSNVTLECNFDTGSHVNLGAITASLQKVENDASPHRERATLLEEQLPLGKASFHIPQVQVRDEGQYQCIIIYGVAWDYKYLTLKVKA
B4 showed a Fortebio Response Units (Response Units) with PD-1-Fc (human) of 0.016. This molecule also showed an IFN gamma levels pg/mL (MLR) with human PD-1 (human) [1] of 1640 pg/mL.

B5: variant PD-L2 IgV H15Q/N24S/T47A/Q72H/R76G/V89D Fc fusion (Fc fusion)
chain: LFTVTVPKELYIIEQGSNVTLECSFDTGSHVNLGAITASLQKVENDASPHRERATLLEEQLPLGKASFHIPHVQVGDEGQYQCIIIYGDAWDYKYLTLKVKA
In the experiment with PD-1-Fc (human), B5 yielded a Fortebio Response Units (Response Units) of 0.4. In the experiment with human PD-1 (human) [1], this molecule had an IFN gamma levels pg/mL (MLR) of 1090 pg/mL.

B6: ICOSL ECD-Fc N52S (Fc fusion)
chain: DTQEKEVRAMVGSDVELSCACPEGSRFDLNDVYVYWQTSESKTVVTYHIPQSSSLENVDSRYRNRALMSPAGMLRGDFSLRLFNVTPQDEQKFHCLVLSQSLGFQEVLSVEVTLHVAANFSVPVVSAPHSPSQDELTFTCTSINGYPRPNVYWINKTDNSLLDQALQNDTVFLNMRGLYDVVSVLRIARTPSVNIGCCIENVLLQQNLTVGSQTGNDIGERDKITENPVSTGEKNAAT
Take B6: in experiment [2], the MFI worked out at 162 MFI and the parental ratio is 9 ratio to WT. In addition, in experiment [3], the OD worked out at 1.33 OD and the parental ratio was 1.55 ratio to WT.

B7: ICOSL ECD-Fc F120S/Y152H/N201S (Fc fusion)
chain: DTQEKEVRAMVGSDVELSCACPEGSRFDLNDVYVYWQTSESKTVVTYHIPQNSSLENVDSRYRNRALMSPAGMLRGDFSLRLFNVTPQDEQKFHCLVLSQSLGFQEVLSVEVTLHVAANSSVPVVSAPHSPSQDELTFTCTSINGYPRPNVHWINKTDNSLLDQALQNDTVFLNMRGLYDVVSVLRIARTPSVNIGCCIESVLLQQNLTVGSQTGNDIGERDKITENPVSTGEKNAAT
Consider B7, for which, in experiment [2], the MFI amounted to 16 MFI and the parental ratio was 0.89 ratio to WT. In experiment [3], the OD was determined as 0.63 OD and the parental ratio was 0.73 ratio to WT.

B8: ICOSL ECD-Fc N52D (Fc fusion)
chain: DTQEKEVRAMVGSDVELSCACPEGSRFDLNDVYVYWQTSESKTVVTYHIPQDSSLENVDSRYRNRALMSPAGMLRGDFSLRLFNVTPQDEQKFHCLVLSQSLGFQEVLSVEVTLHVAANFSVPVVSAPHSPSQDELTFTCTSINGYPRPNVYWINKTDNSLLDQALQNDTVFLNMRGLYDVVSVLRIARTPSVNIGCCIENVLLQQNLTVGSQTGNDIGERDKITENPVSTGEKNAAT
Turning to B8, in experiment [2], the MFI was determined as 130 MFI and the parental ratio is 7.22 ratio to WT. Besides, in experiment [3], the OD was 1.59 OD and the parental ratio was 1.85 ratio to WT.

B9: ICOSL ECD-Fc N52S/Y152H (Fc fusion)
chain: DTQEKEVRAMVGSDVELSCACPEGSRFDLNDVYVYWQTSESKTVVTYHIPQSSSLENVDSRYRNRALMSPAGMLRGDFSLRLFNVTPQDEQKFHCLVLSQSLGFQEVLSVEVTLHVAANFSVPVVSAPHSPSQDELTFTCTSINGYPRPNVHWINKTDNSLLDQALQNDTVFLNMRGLYDVVSVLRIARTPSVNIGCCIENVLLQQNLTVGSQTGNDIGERDKITENPVSTGEKNAAT
With B9, in experiment [2], the MFI is 68 MFI and the parental ratio is 3.78 ratio to WT. Moreover, in experiment [3], the OD is 0.85 OD and the parental ratio is 0.99 ratio to WT.

B10: ICOSL ECD-Fc N52S/D158G (Fc fusion)
chain: DTQEKEVRAMVGSDVELSCACPEGSRFDLNDVYVYWQTSESKTVVTYHIPQSSSLENVDSRYRNRALMSPAGMLRGDFSLRLFNVTPQDEQKFHCLVLSQSLGFQEVLSVEVTLHVAANFSVPVVSAPHSPSQDELTFTCTSINGYPRPNVYWINKTGNSLLDQALQNDTVFLNMRGLYDVVSVLRIARTPSVNIGCCIENVLLQQNLTVGSQTGNDIGERDKITENPVSTGEKNAAT
Regarding B10, in experiment [2], the MFI worked out at 39 MFI and the parental ratio is 2.17 ratio to WT. Moreover, in experiment [3], the OD worked out at 1.33 OD and the parental ratio is 1.55 ratio to WT.

B11: ICOSL ECD-Fc N52S/Y146C/Y152C (Fc fusion)
chain: DTQEKEVRAMVGSDVELSCACPEGSRFDLNDVYVYWQTSESKTVVTYHIPQSSSLENVDSRYRNRALMSPAGMLRGDFSLRLFNVTPQDEQKFHCLVLSQSLGFQEVLSVEVTLHVAANFSVPVVSAPHSPSQDELTFTCTSINGCPRPNVCWINKTDNSLLDQALQNDTVFLNMRGLYDVVSVLRIARTPSVNIGCCIENVLLQQNLTVGSQTGNDIGERDKITENPVSTGEKNAAT
B11: in experiment [2], the MFI came to 39 MFI and the parental ratio is 2.17 ratio to WT. Moreover, in experiment [3], the OD came to 1.26 OD and the parental ratio was 1.47 ratio to WT.

B12: variant PD-L2 IgV I13V/H15Q/T37A/E44D/S48C/S67L/Q82R/V89D Fc fusion (Fc fusion)
chain: LFTVTVPKELYIVEQGSNVTLECNFDTGSHVNLGAIAASLQKVDNDTCPHRERATLLEEQLPLGKALFHIPQVQVRDEGQYRCIIIYGDAWDYKYLTLKVKA
With B12, in the experiment with PD-1-Fc (human), the Fortebio Response Units (Response Units) worked out at 1.25. The IFN gamma levels pg/mL (MLR) with human PD-1 (human) [1] is 1750 pg/mL.

B13: variant PD-L1 I36T/I83T/M97L/K144E/P198T Fc fusion (Fc fusion)
chain: FTVTVPKDLYVVEYGSNMTIECKFPVEKQLDLAALTVYWEMEDKNIIQFVHGEEDLKVQHSSYRQRARLLKDQLSLGNAALQTTDVKLQDAGVYRCLISYGGADYKRITVKVNAPYNKINQRILVVDPVTSEHELTCQAEGYPEAEVIWTSSDHQVLSGKTTTTNSKREEKLFNVTSTLRINTTTNEIFYCTFRRLDTEENHTAELVIPELPLAHPPNER
The molecule B13 showed an MFI at 20 nM with human PD-1 (human) [4] of 62 MFI.

B14: variant PD-L1 N17D/M97L/S99G Fc fusion (Fc fusion)
chain: FTVTVPKDLYVVEYGSDMTIECKFPVEKQLDLAALIVYWEMEDKNIIQFVHGEEDLKVQHSSYRQRARLLKDQLSLGNAALQITDVKLQDAGVYRCLIGYGGADYKRITVKVNAPYNKINQRILVVDPVTSEHELTCQAEGYPKAEVIWTSSDHQVLSGKTTTTNSKREEKLFNVTSTLRINTTTNEIFYCTFRRLDPEENHTAELVIPELPLAHPPNER
B14 returned an MFI at 20 nM in the experiment with human PD-1 (human) [4] of 10100 MFI.

B15: variant PD-L1 Y10F/M18V/S99G/Q138R/T203A Fc fusion (Fc fusion)
chain: FTVTVPKDLFVVEYGSNVTIECKFPVEKQLDLAALIVYWEMEDKNIIQFVHGEEDLKVQHSSYRQRARLLKDQLSLGNAALQITDVKLQDAGVYRCMIGYGGADYKRITVKVNAPYNKINQRILVVDPVTSEHELTCRAEGYPKAEVIWTSSDHQVLSGKTTTTNSKREEKLFNVTSTLRINTTTNEIFYCTFRRLDPEENHAAELVIPELPLAHPPNER
For B15, in the experiment with human PD-1 (human) [4], the MFI at 20 nM came out at 70 MFI.
